# Test: label from the status in PepcDB records
row,Sequence,protein production
1,MSLSDTIPVFDGHNDFLLRLLRNPANRETIWLKGDGTGHLDLPRMKEGGFAGGFFAIYVPSPQAHDAAHFEAMMDAPPFELPLPPMIRAEQAQPVALAMAGHLLWMERAARGRFKVCRTAAEVRSCHADGIVSGIMHMEGAEAIGADLDALHLFHSLGLRSLGPVWSRPTVFGHGVPFRFPGSPDTGEGLTEAGRRLVAECNRLKIMLDLSHLNEKGFDDVARLSDAPLVATHSNAHAVTPSTRNLTDRQLAMIRESRGMVGLNFATSFLREDGRRSAEMGWEPVLRHLDHLIDRLGEDHVGMGSDFDGATIPQGIADVTGLPALQAAMRAHGYDEPLMRKLCHENWYGLLERTWGEGHHHHHH,not failed
2,MIYMPIVVAVDKKSDRAERVLRFAAEEARLRGVPVYVVHSLPGGGRTKDEDIIEAKETLSWAVSIIRKEGAEGEEHLLVRGKEPPDDIVDFADEVDAIAIVIGIRKRSPTGKLIFGSVARDVILKANKPVICIK,not failed
3,MKRLIVVYLLFISLNVLNAWAQKSPADYVNPIIGATTADEMAGSDHGLGKTFPGVCTPFGLVQLSPDTKTGGDNGPGYSWHHSTIEGFSFTHMSGIGWYGDLGNFLVMPTTGELHTFKGTEENPESGYRSRYSHDREVAKVDGYSVMLDDYGIQVELAAASRSGMMRFTYPQSEVSRIQIDLARRIGGTSTEQYVEVVDDYTIKGWMKCTPDGGGWGDGAGQGNYTAYFYCCFDRPLKNFGLWSADIPEGVERKNASNDDPAYHEYIKNAHVFPRKKIAQGKHLGFYTEFSTREGEQALLKCGISFVSIEGARKNLQSDISDWNFDGVRQRARRQWNEALSGVQVEGEEKDKTIFYTSLYHTMIDPRCFSDVDGAYPGADGKVHYADNFIYRTIFSGWDVFRSQFPLQTITNPRLVDDEINSLIQLAELSGKKYFPRWEFLNAYSGCMVGNPAVSVVADAYNKGIRNYDTRKALEYSLNTVRTFGNNEQGYTPDDLSKTLEYAYTDWCVSTMLRDMGREQEAVAFERKAQSYHQVWCDSVKWFRARSADGSWMPWKGRNVHWQGCIESNNYQQGWFVPHDLEGLISLMGKEYFERELVAFFEGADERFMWGDYYNHPNEPDHQVPFMLNYTSRPWLTQYWTRRICRNAYGDTVNGLCGNEDVGQMSAWYILAAMGFHPICPGNNRYELTSPVFRKVILSLDNRYYKGRTFTIIAHHNSPENVYIQSVSLNGKPLNRLWITHEEITKGGVLEFVLGKDPKH,failed
4,MEVDEDIELQKHQEQQSRKLQRFSEDNTGLMRNWNNPSSRIIRVSRASGGKDRHSKVLTSKGLRDRRIRLSVATAIQFYDLQDRLGFDQPSKAVEWLINAASDSITDLPLLNTNFDHLDQNQNQTKSACSSGTSESSLLSLSRTEIRGKARERARERTAKDRDKDLQNAHSSFTQLLTGGFDQQPSNRNWTGGSDCFNPVQLQIPNSSSQEPMNHPFSFVPDYNFGISSSSSAINGGYSSRGTLQSNSQSLFLNNNNNITQRSSISSSSSSSSPMDSQSISFFMATPPPLDHHNHQLPETFDGRLYLYYGEGNRSSDDKAKERR,failed
5,MYRNDPILPTFALILAAGLFYAAYLDGRHIARLLGHVPEELSVGQIGLMAFGAVLLLYGLMGLVSYWLEGIELRPGRHFPTPSTAPVAAGVILVLLLTALSGFFVRLLVYSAQTGHNPTWLQGLIFGSISLVVAALFGIYRRFFGREEVITEEEKSEFPW,failed
6,MAGQTEQVLNGVLEDIEHGRLGPGDLLEEAALTERHGVSRTPVREALIQLETQGLIRRLPRKGAVVFKPTLEEFLAILEVHARLEGQAAGLAARRMNATQAAELEAVVAACEAHARDKGDGDPFGYYRLNLRFHETVALGAGNPYLVEMIKTHARKLLAYYRARYSYPGSIPASAREHRQIATLIFDRRREEAEAAMIRHVQFDQVTVMDLLAALG,failed
7,MALIVQKFGGTSVGTVERIEQVAEKVKKFREAGDDVVVVVSAMSGETNRLIGLANQIMEQPVPRELDVMVSTGEQVTIALLSMALIKRGVPAVSYTGNQVRILTDSAHTKARILHIDDTHIRADLKAGRVVVVAGFQGVDGNGNITTLGRGGSDTTGVALAAALKADECQIYTDVDGVYTTDPRVVPQARRLDKITFEEMLEMASLGSKVLQIRAVEFAGKYNVPLRVLHSFQEGPGTLITIDDEEESMEQPIISGIAFNRDEAKLTIRGVPDTPGVAFKILGPISAANVEVDMIVQNVAHDNTTDFTFTVHRNDYLNALEILKQTAANIGAREAIGDTNIAKVSIVGVGMRSHAGVASRMFEALAKESINIQMISTSEIKVSVVIEEKYLELAVRALHTAFELDAPARQG,failed

# Reference: a protein production outcome set (Wang et al. 2014)
